{
  "source": "patent US20120171699A1",
  "about": "(Merck KGaA, published 2012)",
  "key": {"[1]": {"molecular_target": "integrin β1 chain on cells (UniProt P05556)", "sequence (P05556 21-798 limits assumed)": "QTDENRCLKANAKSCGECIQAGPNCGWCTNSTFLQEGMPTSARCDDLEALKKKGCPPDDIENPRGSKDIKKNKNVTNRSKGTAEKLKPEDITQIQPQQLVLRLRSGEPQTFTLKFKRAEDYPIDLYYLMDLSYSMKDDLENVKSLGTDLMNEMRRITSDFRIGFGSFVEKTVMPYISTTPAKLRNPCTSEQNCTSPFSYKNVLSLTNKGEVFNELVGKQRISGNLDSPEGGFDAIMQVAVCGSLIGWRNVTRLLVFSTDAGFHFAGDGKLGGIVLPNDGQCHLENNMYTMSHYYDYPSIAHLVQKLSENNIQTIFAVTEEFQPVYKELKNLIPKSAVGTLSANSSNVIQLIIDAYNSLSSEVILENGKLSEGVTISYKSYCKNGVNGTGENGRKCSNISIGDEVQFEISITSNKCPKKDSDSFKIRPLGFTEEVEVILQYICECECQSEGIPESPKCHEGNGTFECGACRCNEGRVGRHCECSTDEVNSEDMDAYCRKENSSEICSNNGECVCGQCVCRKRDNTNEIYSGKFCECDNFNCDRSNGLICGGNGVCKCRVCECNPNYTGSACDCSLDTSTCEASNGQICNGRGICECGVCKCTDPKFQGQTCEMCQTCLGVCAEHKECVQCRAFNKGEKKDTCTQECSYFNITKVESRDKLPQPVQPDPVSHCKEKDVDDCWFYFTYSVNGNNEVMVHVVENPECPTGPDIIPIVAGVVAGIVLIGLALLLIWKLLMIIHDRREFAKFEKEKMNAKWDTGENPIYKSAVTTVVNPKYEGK", "test": "live cell flow cytometry on M21, 10 µg/ml antibody; relative to second layer alone"}, "[2]": {"molecular_target": "integrin β1 chain on cells (UniProt P05556)", "test": "live cell flow cytometry on A549, 10 µg/ml antibody; relative to second layer alone"}, "[3]": {"molecular_target": "integrin β1 chain on cells (UniProt P05556)", "test": "live cell flow cytometry on HT-29, 10 µg/ml antibody; relative to second layer alone"}, "[4]": {"molecular_target": "integrin β1 chain on cells (UniProt P05556)", "test": "live cell flow cytometry on HUVEC, 10 µg/ml antibody; relative to second layer alone"}, "[5]": {"molecular_target": "integrin β1 chain on cells (UniProt P05556)", "test": "live cell flow cytometry on M21-L, 10 µg/ml antibody; relative to second layer alone"}, "[6]": {"molecular_target": "integrin β1 chain on cells (UniProt P05556)", "test": "live cell flow cytometry on M24Met, 10 µg/ml antibody; relative to second layer alone"}, "[7]": {"molecular_target": "integrin β1 chain on cells (UniProt P05556)", "test": "live cell flow cytometry on M21-Gpiib, 10 µg/ml antibody; relative to second layer alone"}, "[8]": {"molecular_target": "T1, integrin αvβ5 on cells (human, UniProt P06756 31-1048; P18084 24-799)", "T1 construct": "whole, on cells; Endogenous integrin of live cells (FACS) or of FFPE cells and xenografts (IHC)", "test": "live cell flow cytometry on A549, 10 µg/ml antibody; relative to second layer alone"}, "[9]": {"molecular_target": "T1, integrin αvβ5 on cells", "test": "live cell flow cytometry on HT-29, 10 µg/ml antibody; relative to second layer alone"}, "[10]": {"molecular_target": "T1, integrin αvβ5 on cells", "test": "live cell flow cytometry on M21, 10 µg/ml antibody; relative to second layer alone"}, "[11]": {"molecular_target": "T1, integrin αvβ5 on cells", "test": "live cell flow cytometry on HUVEC, 10 µg/ml antibody; relative to second layer alone"}, "[12]": {"molecular_target": "T1, integrin αvβ5 on cells", "test": "live cell flow cytometry on M24Met, 10 µg/ml antibody; relative to second layer alone"}, "[13]": {"molecular_target": "T2, integrin αvβ3 on cells (human, UniProt P06756 31-1048; P05106 27-788)", "T2 construct": "whole, on cells; Endogenous integrin of live cells (FACS) or of formalin fixed paraffin embedded cells and xenografts (IHC); the cell line is named under assay; also called αvβ3 complex", "test": "live cell flow cytometry on M21, 10 µg/ml antibody; relative to second layer alone", "description": "(§1) Cells in log growth were harvested using trypsin (0.5 μg/ml)/EDTA (0.2 μg/ml), washed in FACS buffer (PBS plus 0.9 mM CaCl₂; 0.5 mM MgCl₂; 0.5% w/v BSA), and incubated with anti-integrin antibodies (60 min; 4° C.; 10 μg/ml in FACS buffer). […] Cells were analyzed on a FACScan (Becton-Dickinson) and the mean intensity fluorescence (MIF) was normalized to the MIF of the negative control (cells stained with PI and secondary labeled antibody, without primary antibody).\n(§2) The RabMabs were assessed in FACS compared to standard well characterized murine monoclonal antibodies."}, "[14]": {"molecular_target": "T2, integrin αvβ3 on cells", "test": "live cell flow cytometry on HUVEC, 10 µg/ml antibody; relative to second layer alone", "description": "as §1, §2"}, "[15]": {"molecular_target": "T2, integrin αvβ3 on cells", "test": "live cell flow cytometry on M24Met, 10 µg/ml antibody; relative to second layer alone", "description": "as §1, §2"}, "[16]": {"molecular_target": "T3, integrin αiibβ3 on M21-gpiib melanoma cells (UniProt P08514 32-1039; P05106 27-788)", "T3 construct": "whole, on cells", "test": "live cell flow cytometry on M21-gpiib melanoma cells", "description": "as §1, §2"}, "[17]": {"molecular_target": "recombinant human integrin αvβ6 extracellular domain (DTM-αvβ6) (human) (UniProt P18564)", "test": "ELISA, integrin coated at 1 µg/ml, antibody serially diluted"}, "[18]": {"molecular_target": "T4, recombinant human integrin αvβ3 extracellular domain (DTM-αvβ3) (human, UniProt P06756 31-992)", "T4 construct": "extracellular domain; Heterodimer made in High Five insect cells with baculovirus; also called Human αvβ3 ECD", "test": "ELISA, integrin coated at 1 µg/ml, antibody serially diluted", "description": "(§3) Recombinant integrins (1 μg/ml) were coated on microtiter plates by adsorption (4° C.; 16 h) from coating buffer (150 mM NaCl; 1 mM CaCl₂; 1 mM MgCl₂; 10 μM MnCl₂; 50 mM Tris-Cl; pH 7.5). The plates were washed (wash buffer: 0.5% BSA; 0.05% Tween 20 in PBS), blocked (1 h; 4° C.; 5% BSA in PBS), and incubated with primary antibodies serially diluted in wash buffer (1 h; 37° C.). After washing, secondary detection antibody (goat-anti-rabbit HRP; 1:5000) was added (1 h; 37° C.), followed by washing and detection using tetramethyl-benzidine (100 μg/ml) in citrate-phosphate buffer (pH 5.0), development with sulphuric acid, and reading against a reagent blank at 450 nm."}, "[19]": {"molecular_target": "T5, recombinant human integrin αvβ5 extracellular domain (DTM-αvβ5) (human, UniProt P06756 31-992)", "T5 construct": "extracellular domain; Heterodimer made in High Five insect cells; also called Human αvβ5 ECD", "test": "ELISA, integrin coated at 1 µg/ml, antibody serially diluted", "description": "as §3"}, "[20]": {"molecular_target": "T6, recombinant human integrin αvβ8 extracellular domain (DTM-αvβ8) (human, UniProt P06756 31-992)", "T6 construct": "extracellular domain; Heterodimer made in High Five insect cells; also called Human αvβ8 ECD", "test": "ELISA, integrin coated at 1 µg/ml, antibody serially diluted", "description": "as §3"}, "[21]": {"molecular_target": "T7, integrin αv chain on cells (human, UniProt P06756 31-1048)", "T7 construct": "whole, on cells; Endogenous αv of live cells (FACS) or FFPE cells and xenografts (IHC); also called Human αv; αv-integrin", "test": "live cell flow cytometry on M21, 10 µg/ml antibody; relative to second layer alone", "description": "as §1, §2"}, "[22]": {"molecular_target": "T7, integrin αv chain on cells", "test": "live cell flow cytometry on HUVEC, 10 µg/ml antibody; relative to second layer alone", "description": "as §1, §2"}, "[23]": {"molecular_target": "T7, integrin αv chain on cells", "test": "live cell flow cytometry on M24Met, 10 µg/ml antibody; relative to second layer alone", "description": "as §1, §2"}, "[24]": {"molecular_target": "T3, integrin αiibβ3 on M21-gpiib melanoma …", "test": "live cell flow cytometry on M21-Gpiib, 10 µg/ml antibody; relative to second layer alone", "description": "as §1, §2"}, "[25]": {"molecular_target": "T8, full length human gpiibiiia purified from platelets (human, UniProt P08514 32-1039; P05106 27-788)", "T8 construct": "mature; Extracted from outdated human platelets with octylglucoside; also called intact αiibβ3; full length purified platelet gpiibiiia", "test": "ELISA, integrin coated at 1 µg/ml, antibody serially diluted", "description": "as §3"}, "[26]": {"molecular_target": "T4, recombinant human integrin αvβ3 …", "test": "ELISA, integrin coated at 1 µg/ml", "description": "as §3"}, "[27]": {"molecular_target": "T8, full length human gpiibiiia purified …", "test": "ELISA, integrin coated at 1 µg/ml", "description": "as §3"}, "[28]": {"molecular_target": "T5, recombinant human integrin αvβ5 …", "test": "ELISA, hybridoma supernatants on the recombinant αvβ5 extracellular domain (FIG. 10)"}, "[29]": {"molecular_target": "T4, recombinant human integrin αvβ3 …", "test": "ELISA, hybridoma supernatants on recombinant αvβ3 against αvβ5 extracellular domains (FIG. 10)"}},
  "data": [
    {"molecule": "P4C10 (antibody)", "values": [
      {"measurement": "rMIF", "setting": "[1]", "result": 7.2},
      {"measurement": "rMIF", "setting": "[2]", "result": 7.5},
      {"measurement": "rMIF", "setting": "[3]", "result": 14.5},
      {"measurement": "rMIF", "setting": "[4]", "result": 38.9},
      {"measurement": "rMIF", "setting": "[5]", "result": 12.1},
      {"measurement": "rMIF", "setting": "[6]", "result": 14},
      {"measurement": "rMIF", "setting": "[7]", "result": 10.8}
    ]},
    {"molecule": "P1F6 (antibody)", "values": [
      {"measurement": "rMIF", "setting": "[8]", "result": 3.6},
      {"measurement": "rMIF", "setting": "[9]", "result": 3.2},
      {"measurement": "rMIF", "setting": "[10]", "result": 3.8},
      {"measurement": "rMIF", "setting": "[11]", "result": 2.7},
      {"measurement": "rMIF", "setting": "[12]", "result": 3.8}
    ]},
    {"molecule": "LM609 (antibody, V domains shown) VH: EVQLVESGGGLVKPGRSLRLSCAASGFAFSSYDMSWVRQIPEKRLEWVAKVSSGGGSTYYLDTVQGRFTISRDNAKNTLYLQMSSLNSEDTAMYYCARHNYGSFAYWGQGTLVTVSA VL: DIVLTQSPATLSVTPGDSVSLSCQASQSISNHLHWYQQKSHESPRLLIKYRSQSISGIPSRFSGSGSGTDFALSINSVETEDFGMYFCQQSGSWPHTFGGGTKLEIK", "values": [
      {"measurement": "rMIF", "setting": "[13]", "result": 9.1},
      {"measurement": "rMIF", "setting": "[14]", "result": 10.7},
      {"measurement": "rMIF", "setting": "[15]", "result": 4.9}
    ]},
    {"molecule": "EM01309 (antibody, V domains shown, Rabbit IgG monoclonal; Hybridoma and recombinant forms are kept as one molecule; also called E3875-013-9; E3875-13-9) VH: QSVEESGGRLVTPGTSLTLTCTVSGIDLTSNSLSWVRQAPGKGLEWIGAISSRATTYFAAWAKGRFTISRTSTTVDLRITSLTASDTATYFCGKFNLWGQGTLVTVSS VL: AQVLTQTPSSVSAAVGGTVTINCQASQSVASNNALAWFQQKPGQPPKLLIYYASTLASGVPSRFKGSGSGTQFTLTISDLECADAATYYCLGGYDCRGTDCNVFGGGTEVVVKG", "values": [
      {"measurement": "binding result", "setting": "[16]", "result": "no binding (tested: 10 µg/ml)"},
      {"measurement": "IC50", "setting": "[17]", "result": 4.9, "unit": "ng/mL"},
      {"measurement": "IC50", "setting": "[18]", "result": 4.7, "unit": "ng/mL"},
      {"measurement": "IC50", "setting": "[19]", "result": 5.6, "unit": "ng/mL"},
      {"measurement": "IC50", "setting": "[20]", "result": 4.1, "unit": "ng/mL"},
      {"measurement": "rMIF", "setting": "[21]", "result": 1.3},
      {"measurement": "rMIF", "setting": "[22]", "result": 28.8},
      {"measurement": "rMIF", "setting": "[23]", "result": 2.5},
      {"measurement": "rMIF", "setting": "[24]", "result": 1}
    ]},
    {"molecule": "EM22703 (antibody, V domains shown, Rabbit monoclonal; Hybridoma and recombinant forms are kept as one molecule) VH: QSVKESEGGLFKPTDTLILTCTVSGFSLSSYGVSWVRQAPGNGLEYIGSISTTGITYYASWAKSRSTITRNTNLYTVTLKMTGLTAADTATYFCARGFPGHLRKPSDIWGPGTLVTVSA VL: AQVLTQTPSSVSAAVGGTVSISCQSSESVYADIALSWFQQKPGQPPKLLIYGASTLASGVPSRFSGSGSGTEFTLTISDVQCDAAATYYCAGDYGAGTEPNLFGGGTEVVVSG", "values": [
      {"measurement": "IC50", "setting": "[18]", "result": 1.4, "unit": "ng/mL"},
      {"measurement": "IC50", "setting": "[25]", "result": 0.85, "unit": "ng/mL"},
      {"measurement": "rMIF", "setting": "[13]", "result": 17.6},
      {"measurement": "rMIF", "setting": "[14]", "result": 12.4},
      {"measurement": "rMIF", "setting": "[15]", "result": 8.1},
      {"measurement": "rMIF", "setting": "[24]", "result": 56}
    ]},
    {"molecule": "EM09902 (antibody, V domains shown, Rabbit monoclonal; Hybridoma and recombinant forms are kept as one molecule; also called E3536-99-1; E3536-99-2) VH: QEQLEESGGGLVQPEGSLTLTCTVSGFPLRNVWISWVRQAPGKGLEWIGCIYTGRDWPYYASWAKGRFTISKSSSTTVTLQMTSLTATDTATYFCARIVYGGAGYRLWGPGTLVTVSS VL: ALVMTQTPPSVEAAVGGTVTINCQASQDIGSDLAWYQQKPGQPPKLLIYSASSLASGVPSRFKASGSGTQFTLTISDVQCDDAATYSCAGYKSYSDDGHGFGGGTEVVVKG", "values": [
      {"measurement": "cross-reactivity, fold in IC50 against the immunogen", "setting": "[26]", "result": "~100", "unit": "fold"},
      {"measurement": "cross-reactivity, fold in IC50 against the immunogen", "setting": "[27]", "result": "~100", "unit": "fold"},
      {"measurement": "IC50", "setting": "[18]", "result": "~450", "unit": "ng/mL"},
      {"measurement": "IC50", "setting": "[19]", "result": 5.6, "unit": "ng/mL"},
      {"measurement": "IC50", "setting": "[25]", "result": "~400", "unit": "ng/mL"},
      {"measurement": "EC50", "setting": "[28]", "result": 0.05, "unit": "nM"},
      {"measurement": "rMIF", "setting": "[10]", "result": 7.2},
      {"measurement": "rMIF", "setting": "[11]", "result": 33.9},
      {"measurement": "rMIF", "setting": "[12]", "result": 40.1},
      {"measurement": "rMIF", "setting": "[24]", "result": 1.9},
      {"measurement": "factor in apparent Kd, αvβ5 over αvβ3", "setting": "[29]", "result": "> 100", "unit": "fold"}
    ]},
    {"molecule": "17E6 (antibody, V domains shown) VH: QVQLQQSGAELAEPGASVKMSCKASGYTFSSFWMHWVKQRPGQGLEWIGYINPRSGYTECNEIFRDKATMTADTSSSTAYMQLSGLTSEDSAVYYCASFLGRGAMDYWGQGTSVTVSS VL: DIQMTQTTSSLSASLGDRVIISCRASQDISNYLSWYQQKPDGTVKLLIFYTSKLHSGVPSRFSGSGSGTDYSLTISNLDQEDIATYFCQQGNTFPYTFGGGTKVEMR", "values": [
      {"measurement": "rMIF", "setting": "[21]", "result": 9.3},
      {"measurement": "rMIF", "setting": "[23]", "result": 7.8}
    ]}
  ]
}
